This passage reports stoichiometry N results from article PMC8756792.

The target of the test is Ribulose-5-phosphate epimerase of Leishmania donovani (Leishmania donovani). Briefly: SEC. (Size exclusion chromatography separates by hydrodynamic size, large species first.)

The term stoichiometry N denotes a count of units in the complex or per binding partner.

The substance “Ribulose-5-phosphate epimerase of Leishmania donovani (enzyme)” showed a stoichiometry N of 2.
